According to article PMC12136796:
Blank lines part the entries; values can stand above or below the substance they belong to.

Key:
Test in all cases: co-IP
[1] = molecular target: mGFP-PICK1 5K-E (mouse) (UniProt Q62083)
[2] = molecular target: mCherry-PICK1 WT (mouse) (UniProt Q62083)
[3] = molecular target: mGFP-KIBRA ΔC2 (mouse) (UniProt Q5SXA9)
[4] = molecular target: mGFP-KIBRA ΔCCL (mouse) (UniProt Q5SXA9)
[5] = molecular target: mGFP-KIBRA ΔαBR (mouse) (UniProt Q5SXA9)
[6] = molecular target: mCherry-KIBRA WT (mouse) (UniProt Q5SXA9)
Chain of mCherry-KIBRA WT (mouse) (Q5SXA9 whole entry): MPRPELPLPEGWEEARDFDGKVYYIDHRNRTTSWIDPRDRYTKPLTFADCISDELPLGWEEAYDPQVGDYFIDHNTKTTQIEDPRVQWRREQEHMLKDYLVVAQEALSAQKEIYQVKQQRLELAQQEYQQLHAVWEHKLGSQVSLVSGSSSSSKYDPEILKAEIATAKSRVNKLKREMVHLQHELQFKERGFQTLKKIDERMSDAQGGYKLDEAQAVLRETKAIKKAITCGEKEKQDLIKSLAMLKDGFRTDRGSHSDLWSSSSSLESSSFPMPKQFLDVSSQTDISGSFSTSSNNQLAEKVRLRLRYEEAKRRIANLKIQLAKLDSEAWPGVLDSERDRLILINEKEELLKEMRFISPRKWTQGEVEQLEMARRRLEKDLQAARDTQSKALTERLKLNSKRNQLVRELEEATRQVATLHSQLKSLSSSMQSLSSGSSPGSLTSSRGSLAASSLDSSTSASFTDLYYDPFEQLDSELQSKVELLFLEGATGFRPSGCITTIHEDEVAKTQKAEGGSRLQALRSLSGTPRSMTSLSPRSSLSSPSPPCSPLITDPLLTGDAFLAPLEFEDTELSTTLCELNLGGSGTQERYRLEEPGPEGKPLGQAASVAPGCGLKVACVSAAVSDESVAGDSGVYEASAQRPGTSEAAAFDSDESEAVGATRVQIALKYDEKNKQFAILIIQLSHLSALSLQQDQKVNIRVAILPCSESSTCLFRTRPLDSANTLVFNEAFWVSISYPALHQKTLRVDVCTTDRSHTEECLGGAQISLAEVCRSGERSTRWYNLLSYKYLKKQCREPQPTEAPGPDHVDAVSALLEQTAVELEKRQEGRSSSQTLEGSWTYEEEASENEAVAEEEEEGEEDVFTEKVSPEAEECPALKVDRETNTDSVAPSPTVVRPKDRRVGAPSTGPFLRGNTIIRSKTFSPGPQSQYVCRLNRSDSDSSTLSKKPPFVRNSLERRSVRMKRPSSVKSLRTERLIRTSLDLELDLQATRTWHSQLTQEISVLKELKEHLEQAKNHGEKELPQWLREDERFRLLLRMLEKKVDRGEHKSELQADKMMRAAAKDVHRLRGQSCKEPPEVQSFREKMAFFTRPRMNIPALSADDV

Chain of mCherry-PICK1 WT (mouse) (Q62083 whole entry): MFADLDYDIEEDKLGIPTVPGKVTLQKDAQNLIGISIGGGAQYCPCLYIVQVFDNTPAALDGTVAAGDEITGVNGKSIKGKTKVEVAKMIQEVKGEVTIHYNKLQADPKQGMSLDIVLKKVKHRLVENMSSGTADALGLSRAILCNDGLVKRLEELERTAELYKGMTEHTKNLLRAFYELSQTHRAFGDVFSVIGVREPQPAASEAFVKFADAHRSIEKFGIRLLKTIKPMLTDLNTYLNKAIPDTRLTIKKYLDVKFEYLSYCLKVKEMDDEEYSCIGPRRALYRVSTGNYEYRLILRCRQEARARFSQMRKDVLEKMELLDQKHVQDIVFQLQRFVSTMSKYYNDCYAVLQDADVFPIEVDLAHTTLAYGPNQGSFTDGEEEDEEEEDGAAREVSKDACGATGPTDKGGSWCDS
Chain of mGFP-PICK1 5K-E (mouse) (Q62083 whole entry): as above
Chain of mGFP-KIBRA ΔαBR (Q5SXA9 whole entry, stated change not applied): as the sequence (Q5SXA9 whole entry) above
Chain of mGFP-KIBRA ΔC2 (Q5SXA9 whole entry, stated change not applied): as the sequence (Q5SXA9 whole entry) above
Chain of mGFP-KIBRA ΔCCL (Q5SXA9 whole entry, stated change not applied): as the sequence (Q5SXA9 whole entry) above
Chain of mGFP-PICK1 KD-AA (Q62083 whole entry): as the sequence (Q62083 whole entry) above
Chain of mGFP-PICK1 BAR (domain or fragment) (Q62083 whole entry, the tested form may be a part): as the sequence (Q62083 whole entry) above
Chain of Myc-GluA2 (P19491 22-883): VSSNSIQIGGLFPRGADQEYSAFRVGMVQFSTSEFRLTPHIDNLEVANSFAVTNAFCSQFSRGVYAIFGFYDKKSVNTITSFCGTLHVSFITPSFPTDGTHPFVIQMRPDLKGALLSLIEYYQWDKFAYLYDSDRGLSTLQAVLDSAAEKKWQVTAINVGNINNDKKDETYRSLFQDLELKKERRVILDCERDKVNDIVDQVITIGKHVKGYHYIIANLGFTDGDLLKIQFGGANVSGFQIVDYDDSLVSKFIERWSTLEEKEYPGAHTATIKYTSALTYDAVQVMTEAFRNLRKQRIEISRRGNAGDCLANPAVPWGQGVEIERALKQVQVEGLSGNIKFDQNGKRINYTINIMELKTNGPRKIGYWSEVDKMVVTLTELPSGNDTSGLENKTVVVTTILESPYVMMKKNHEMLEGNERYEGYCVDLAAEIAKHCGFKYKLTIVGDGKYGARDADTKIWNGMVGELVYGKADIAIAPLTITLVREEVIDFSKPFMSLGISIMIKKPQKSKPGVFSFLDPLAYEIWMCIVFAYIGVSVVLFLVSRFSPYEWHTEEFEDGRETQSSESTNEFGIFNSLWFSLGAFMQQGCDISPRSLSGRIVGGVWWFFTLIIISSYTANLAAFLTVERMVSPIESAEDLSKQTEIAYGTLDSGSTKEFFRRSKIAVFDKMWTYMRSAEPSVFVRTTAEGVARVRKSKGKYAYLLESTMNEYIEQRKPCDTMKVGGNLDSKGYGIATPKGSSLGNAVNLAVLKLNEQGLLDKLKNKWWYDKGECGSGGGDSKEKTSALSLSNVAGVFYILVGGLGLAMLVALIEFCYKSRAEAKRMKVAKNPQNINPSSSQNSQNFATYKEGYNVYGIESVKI
Chain of mGFP-KIBRA ΔWW (Q5SXA9 whole entry, stated change not applied): as the sequence (Q5SXA9 whole entry) above
Chain of mCherry-KIBRA WT (Q5SXA9 whole entry): as above

Substance: mGFP-KIBRA ΔC2 (from UniProt Q5SXA9 1-1104) (natural protein)
co-precipitated KIBRA relative to KIBRA WT [2]: 1.29 fold of WT
co-precipitated mGFP-KIBRA relative to KIBRA WT [3]: 1.36 fold of WT

Substance: mGFP-KIBRA ΔCCL (from UniProt Q5SXA9 1-1104) (natural protein)
co-precipitated KIBRA relative to KIBRA WT [2]: 1.48 fold of WT
co-precipitated mGFP-KIBRA relative to KIBRA WT [4]: 1.6 fold of WT

Substance: mGFP-KIBRA ΔWW (from UniProt Q5SXA9 1-1104) (natural protein)
co-precipitated KIBRA relative to KIBRA WT [2]: 1.79 fold of WT

Substance: mGFP-PICK1 KD-AA (from UniProt Q62083 1-416) (natural protein)
co-precipitated PICK1 relative to PICK1 WT [6]: 0.81 fold of WT

Results, then the substance that gave them:

co-precipitated GluA2 relative to PICK1 WT (mCherry-KIBRA co-expressed) [1]: 0.27 fold of WT
Substance: Myc-GluA2 (from UniProt P19491 22-883) (receptor)

co-precipitated KIBRA relative to PICK1 WT [1]: 0.63 fold of WT
Substance: mCherry-KIBRA WT (from UniProt Q5SXA9 1-1104) (natural protein)

co-precipitated KIBRA relative to KIBRA WT [2]: 1.94 fold of WT
co-precipitated mGFP-KIBRA relative to KIBRA WT [5]: 1.55 fold of WT
Substance: mGFP-KIBRA ΔαBR (from UniProt Q5SXA9 1-1104) (natural protein)

co-precipitated PICK1 relative to PICK1 WT [6]: 1.62 fold of WT
Substance: mGFP-PICK1 BAR (domain or fragment)
